Laboratory results: patent US11505583B2, “Proteins for the treatment of epithelial barrier function disorders” (Second Genome, Inc., priority 2018, dated 2022)

Experiments:
trypsin = assay: Incubation with immobilized trypsin, SDS-PAGE (Example 14); assay type: in vitro ADME; conditions: room temperature, 10 min to 2 hr, PBS pH 7.4, FIG. 25
Method: An experiment was performed to assess generation of the fragment upon incubation in the presence of trypsin. Columns were prepared to contain 100 μl immobilized Trypsin slurry, washed twice with PBS, loaded with SG-11 (SEQ ID NO:9) diluted in PBS, pH 7.4, then incubated at room temperature for varied times. To stop the reaction, each column was centrifuged to remove protein from the column, then analyzed on an SDS-PAGE gel using Coomassie Blue visualization.

[1] = Aggregation by analytical size exclusion chromatography (Example 9); assay type: physicochemical
Method: The stability of SG-11 (SEQ ID NO:9) was evaluated following the incubation at 37° C. for one week and at 4° C. for 3 weeks in Buffer C (100 mM sodium phosphate, pH 7.0, 0.5 M sorbitol). The stability was assessed by monitoring the aggregation formation with analytical size exclusion chromatography (SEC) equilibrated with Buffer D (100 mM sodium phosphate, pH 7.0, 10% glycerol). […] The cause of the aggregation was investigated as follows. There are two cysteine residues found in SG-11 at the positions 147 and 151 (relative to SEQ ID NO:7). […] As free sulfhydryl groups could cause aggregation by forming unpreferable intermolecular disulfide bonds, it was examined whether the presence of reducing agent, such as β-mercaptoethanol, could prevent the aggregation.

[2] = Forced degradation under stress conditions (SEC-HPLC, LC/MS/MS) (Example 8); assay type: physicochemical; conditions: for Aggregates (SEC-HPLC): 2 weeks
Method: SG-11 (SEQ ID NO:9) was also tested under a series of stress conditions shown in Table 8 below to further characterized the stability of recombinant, purified SG-11. Stressed samples were analyzed either by SEC-HPLC for the presence of aggregates and/or degradants. LC/MS/MS was performed for determination of levels of deamidation and oxidation.
For this analysis, SG-11 (SEQ ID NO:9) was present at a concentration of 1 mg/ml in PBS (50 mM sodium phosphate, 150 mM NaCl, 10% glycerol, pH 8.0), with the exception of tests under pH 4 and pH 9. For pH 4, SG-11 (SEQ ID NO:9) was prepared at a concentration of 1 mg/ml in sodium acetate buffer (50 mM sodium acetate, 150 mM NaCl, pH 4). For pH 9, SG-11 (SEQ ID NO:9) was prepared at a concentration of 1 mg/ml in CAPSO (3-cyclohexylamino-2-hydroxy-1-propanesulfonic acid) buffer (50 mM CAPSO, 150 mM NaCl, pH 9).
Three samples treated by incubation at 40° C. for two weeks, oxidation (H2O2) or high pH 9, respectively, were analyzed by LC/MS/MS for PTMs. […] 7.84% of N53 was deamidated without any treatment.
After reduction, free cysteines were artificially carbamidomethylated by iodoacetamide to block cysteine residues from oxidation in the assays.

[3] = Stability in fecal slurry, SDS-PAGE and Coomassie blue (Example 14); conditions: 37° C., 10 min, 30 min, 1 hr, 2 hr; human fecal pellets in PBS; FIG. 24

B1: SG-11 (SEQ ID NO:9): SG-11 (SEQ ID NO:3) with a FLAG-tag (DYKDDDDK) at the N-terminus (protein)
chain: MDYKDDDDKGSSHMLEGEESVVYVGKKGVIASLDVETLDQSYYDETELKSYVDAEVEDYTAEHGKNAVKVESLKVEDGVAKLKMKYKTPEDYTAFNGIELYQGKVVASLAAGYVYDGEFARVEEGKVVGAATKQDIYSEDDLKVAIIRANTDVKVDGEICYVSCQNVKLTGKDSVSIRDGYYLETGSVTASVDVTGQESVGTEQLSGTEQMEMTGEPVNADDTEQTEAAAGDGSFETDVYTFIVYK
modifications: N-terminal FLAG tag
- Product on incubation with trypsin (SDS-PAGE) (trypsin): a predominant band is generated in the presence of trypsin
- Aggregation formation (analytical SEC) ([1]; 4-days incubation at 37° C. in presence of 2.5% (v/v) mercaptoethanol, 50 mM sodium phosphate, 150 mM NaCl, 10% glycerol): Aggregation was greatly suppressed
- Aggregation formation (analytical SEC) ([1]; 4° C. for 3 weeks in Buffer C (100 mM sodium phosphate, pH 7.0, 0.5 M sorbitol), vs freshly thawed protein): No noticeable change
- Aggregation formation (analytical SEC) ([1]; 37° C. for one week in Buffer C (100 mM sodium phosphate, pH 7.0, 0.5 M sorbitol)): clearly showed aggregation peaks
- Aggregates (SEC-HPLC) ([2]; 4° C.): low level of aggregates
- Aggregates (SEC-HPLC) ([2]; 37° C.): major aggregation occurred
- Aggregation or degradation (SEC-HPLC) ([2]; mechanical stress): do not cause either protein aggregation or degradation
- Aggregation or degradation (SEC-HPLC) ([2]; repeated freeze and thaw): do not cause either protein aggregation or degradation
- Stability in fecal slurry (SDS-PAGE) [3]: generation of a predominant band with an apparent molecular weight of about 25 kDa
